From patent US20110117206A1, “PHOSPHOPEPTIDES AND USE OF THE SAME” (PLANT BIOSCIENCE LIMITED, priority 2008, published 2011)
Ends that are not written are not given here.

Experiments:
[1] = Fetuin A / casein phosphopeptide mixed nanoclusters, dynamic light scattering; format: physicochemical; details: 66.4 mg ml^−1, Mg-free Buffer A, urea/urease method
Experimental: Fetuin A was purchased from Sigma Aldrich as product no. F3004. […] The inventors determined the precipitation problem was much reduced at lower fetuin A concentrations so an approach was adopted in which mixed nanoclusters were prepared with casein phosphopeptides and a variable concentration of the fetuin A to recover the size of the fetuin nanoclusters by an extrapolation procedure from lower concentrations. The casein phosphopeptide mixture was supplied by Arla Ltd, Denmark as product Lacprodan 2090 (Na salt). […] The intensity weighted normalised distribution curves calculated by Laplace transformation of the correlation functions of the 6 samples, offset vertically for clarity (FIG. 18a) indicate a nanocluster peak of about 6 nm in accordance with previous work, but as the fetuin A concentration increased, a second peak became increasingly important at larger size. […] Although difficult to estimate exactly, on the basis of scattering by homogeneous spherical particles, the weight fraction of aggregated material in these experiments was calculated to be less than 1% in all cases. […]

[2] = SAXS of free OPN and OPN 1-149 (Guinier, worm-like chain model); format: physicochemical
Experimental: In a SAXS experiment, wherein measurements were made on station 2.1 at the CCLRC Daresbury Laboratory, the normalised scattered intensity I(q) was measured. For a dispersion of isotropic, monodisperse particles, I(q) is related to the inter-particle structure factor, S(q) and the particle scattering factor P(q) by
where N is the number of particles of mean excess scattering length density over the solvent Δ ρp, volume Vp and mass M. The scattering wave vector is q=4π sin θ/λo, where θ is half the scattering angle and λo is the wavelength of the X-rays. In a dilute solution where S(q)=1 and a fraction α′ of the peptide chains have formed a polydisperse distribution of nanoclusters, equation (22) becomes
The molar volumes of the unphosphorylated residues were taken from Jacrot and Zaccai (Jacrot, B. & Zaccai, G. (1981). Determination of Molecular-Weight by Neutron-Scattering. Biopolymers 20, 2413-2426). The molar volume of ortho-L-phosphoserine was calculated from the unit cell volume of the amino acid, as determined by Sundaralingam (Sundaralingam, M. & Putkey, E. F. (1970). Molecular structures of amino acids and peptides. II. A redetermination of the crystal structure of L-O-serine phosphate. A very short phosphate-carboxyl hydrogen bond. Acta Crystallographica B26, 790-800) and 11 Å^3 subtracted to give the residue volume of 168.7 Å^3. The difference in residue volumes of serine and phosphoserine was then used to calculate a residue volume for phosphothreonine of 191.7 Å^3. The X-ray forward scattering amplitudes of the residues were calculated from the elemental compositions using atomic scattering factors. For OPN 16P 1-149 and OPN 28P 1-262, the scattering length densities in units of […] were calculated to be 12.56 and 12.48, respectively. For the nanoclusters prepared with OPN 16P 1-149 it was assumed that the phosphate moieties of the 10 phosphorylated residues found in the three PCs, were assigned to the core, giving ρshell=12.40×10^10 cm^−2. For the core, a hydrated CaP with the composition given by equation (2) gave ρcore=19.1×10^10 cm^−2. Radii of gyration of the whole protein and N-terminal polypeptide were independent of concentration in the range 5-15 mg ml^−1. For OPN the average of three determinations by the Guinier method was 5.50±0.17 nm and the corresponding value for OPN 1-149 was 2.17±0.24 nm. For OPN with 262 residues, equation (28) predicts a radius of gyration of 5.38 nm and for the N-terminal plasmin peptide of 149 residues, the predicted value is 3.84 nm.
Random-coil behavior and the dimensions of chemically unfolded proteins. Proceedings of the National Academy of Sciences of the United States of America 101, 12491-12496). […]

[3] = Ca2+ binding isotherm (Ca ion selective electrode) fitted with semi-empirical binding model; details: from isotherm fit
Text: To model the chemical species in the OPN 1-149 nanocluster solution requires the calculation of Ca ion binding to the free peptide at any pH in the range 5.0-8.0. A semi-empirical model was used to describe the binding isotherms obtained previously for the β-casein 1-25 phosphopeptide in this pH range and the same model was adapted to fit the binding isotherm of OPN 1-149 measured at pH 7.0. The rescaled model was then used to predict binding at any other value of the pH. Binding of Ca ions to the β-casein 1-25 peptide is predominantly to 4 phosphorylated residues and, to a lesser extent, to 7 Glu residues and the C-terminus.
Fitting of the experimental isotherms was done to an equation of the form
where the summation is over all binding sites with Ca ion association constants Ka,i. The function Ni(pH) describes the number of sites of type i as a function of pH and φi is the degree of phosphorylation. It was assumed, that all the phosphorylated sites had the average degree of phosphorylation φ. The number of dianionic phosphoseryl sites at a given pH is given by
The binding behaviour of β-casein has shown that one Ca ion is bound much more strongly than the rest, so the model for binding to the phosphate dianionic groups allowed for two pKs and two Ca ion association constants. The phosphorylated sites have a reduced affinity for Ca ions when they become protonated and were treated as having the same low affinity as the carboxyl groups. […]
The Ca^2+ binding isotherm of peptides recovered from fraction F3a was determined by measuring the concentration of free Ca ions with a Ca ion selective electrode after successive small additions of a stock solution of 100 mM Ca(NO3)2 to a solution containing 25 mg ml^−1 of F3a, buffered to pH 7.0 with 20 mM P, and 50 mM KNO3. […] The calculated OPN 1-149 isotherm was obtained by a separate fitting of the single isotherm employing a model with two pKs and association constants but keeping as many as possible of the constants from the casein model.

Which “nanocluster preparation with fetuin A alone” value [1] does the source give for “Fetuin A: purchased from Sigma Aldrich, product no. F3004, purity about 80-90%” here?
Its value is “a fraction of the product precipitated”.

For “OPN: full length native bovine milk osteopontin, gel filtration fraction F2”, which “Kuhn length from the worm-like chain model” value ([2]; fit of SAXS) is on record?
The value was 1.74±0.14 nm.

What about the “radius of gyration by the Guinier method” value ([2]; free peptide, 5-15 mg ml^−1, average of three determinations) of the same substance?
Its value is 5.50±0.17 nm.

And the “Kuhn segment length b from equation (24)” value ([2]; from radius of gyration)?
Its value is 1.9 nm.

Which results are given for “β-casein 1-25: 25 residue N-terminal bovine β-casein tryptic phosphopeptide (RELEELNVPGEIVESLSSSEESITR; also: phosphopeptide (4P), sites not given here; UniProt P02666 16-40, looked up, fragment)”?
effective pK of the isolated Pse residue [3]: 6.0; pK of the cluster of three Pse residues [3]: 7.2
